Several values for one entry are separate records, joined by “and”; a condition that tells them apart may be missing. Identical values can stand only once.
What was measured:
[1] = target: T1, TauC3 (C-terminally truncated tau fragment ending at aspartate 421 of htau40) (human, UniProt P10636 1-738); assay: binding ELISA on coated TauC3, OD650
T1 construct: Generated and purified by Genscript; also called Human TauC3; recombinant TauC3 protein
In short: (§1)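 Chimeric or humanized IgG4κ antibodies were expressed in ExpiCHO cells and tested by binding ELISA against coated TauC3 antigen, which Genscript made and purified. Absorbance was read at 650 nm as the measure of binding. EC50 was calculated from the antibody concentration-response.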

[2] = target: T1, TauC3 (C-terminally truncated tau …); assay: binding ELISA on coated TauC3, OD650; remark: listed apart in the source
In short: as §1

[3] = target: T1, TauC3 (C-terminally truncated tau …); assay: binding ELISA on coated TauC3, OD650; remark: listed apart in the source
In short: as §1

[4] = target: T2, full length Tau (2N4R, htau40) (human, UniProt P10636 1-758); assay: Octet, antibody on Protein G sensor, FL Tau in solution
T2 construct: Generated and purified by Genscript; also called FL Tau; FLT
T2 sequence (P10636 other isoform, or with tags, fused parts or gaps limits assumed): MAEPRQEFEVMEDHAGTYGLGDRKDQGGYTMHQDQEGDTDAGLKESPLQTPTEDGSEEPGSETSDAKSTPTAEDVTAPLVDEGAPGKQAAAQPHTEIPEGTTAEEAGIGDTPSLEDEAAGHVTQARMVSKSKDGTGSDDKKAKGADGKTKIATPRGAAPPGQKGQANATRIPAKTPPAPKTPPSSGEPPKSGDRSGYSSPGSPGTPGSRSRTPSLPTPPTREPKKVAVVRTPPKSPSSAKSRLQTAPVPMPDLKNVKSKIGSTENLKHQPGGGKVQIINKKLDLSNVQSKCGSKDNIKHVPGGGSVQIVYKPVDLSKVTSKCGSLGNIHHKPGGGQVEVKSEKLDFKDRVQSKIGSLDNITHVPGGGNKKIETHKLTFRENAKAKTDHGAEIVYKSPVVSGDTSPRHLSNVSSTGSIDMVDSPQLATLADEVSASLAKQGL
In short: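 Antibody loaded on Protein G biosensors was tested by Bio-Layer Interferometry (OctetRed96) for binding to purified full-length tau in solution. The tau was made and purified by Genscript. Full-length tau was applied at 500 nM. The result is the binding signal response in nm.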

[5] = target: T1, TauC3 (C-terminally truncated tau …); assay: SPR (Biacore) kinetics, TauC3 amine-coupled on CM5, 1:1 global fit
In short: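 Each purified antibody was injected at a series of concentrations over a CM5 chip carrying amine-coupled purified antigen, with readout by Biacore surface plasmon resonance. A global fit gave Kd together with the association and dissociation rates. The fit model was 1:1.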

[6] = target: T1, TauC3 (C-terminally truncated tau …); assay: binding ELISA on coated TauC3, OD650; right table (HM variants)
In short: as §1

[7] = target: T1, TauC3 (C-terminally truncated tau …); assay: Biacore kinetics, TauC3 amine-coupled on CM5, antibody series, 1:1 global fit
Text: To determine the affinity of the binding interactions, a biacore kinetic assay was developed which involved immobilizing TauC3 on a CM5 chip via amine coupling and injecting a concentration series of the respective antibody over it.

[8] = target: T1, TauC3 (C-terminally truncated tau …); assay: Biacore off-rate ranking, TauC3 amine-coupled on CM5, one antibody concentration; one-phase exponential decay fit
Method: (§2) To further evaluate the binding data observed on the Octet, an off-rate ranking experiment was performed on the Biacore 200 instrument. Biacore offers greater selectivity than the Octet and facilitated the immobilization of TauC3 onto a CM5 chip via amine coupling which stabilizes the antigen. This produces higher quality data with stable baselines and good reproducible responses. Once TauC3 is immobilized, one concentration (5 nM) of antibody is added, followed by a dissociation and regeneration step (Section 8.20). The off-rates were fitted using a two-phase decay model (FIG. 25B) or a one phase decay fitting only the second off-rate (FIG. 25A). The candidates were then ranked based on the off-rates obtained using the fits and compared. The data agreed with the Octet results (albeit with a different ranking order), highlighting Tau01 HMKM, HMKO, HMKP, HMKN and HMKE as the humanized variants with the slowest off-rates. The lack of binding of FL Tau to chimeric and a humanized candidate was also confirmed by Biacore by loading the antibody onto a Protein G chip and adding 250 nM FL Tau.

[9] = target: T1, TauC3 (C-terminally truncated tau …); assay: Biacore off-rate ranking, TauC3 amine-coupled on CM5, one antibody concentration; two-phase decay fit, slow phase; design: unit not given here
Method: as §2

[10] = target: T1, TauC3 (C-terminally truncated tau …); assay: binding ELISA on TauC3 after 21 days at 37 C in PBS or mouse, human, cynomolgus serum, with non-incubated control
Method: Purified samples of the chimeric and humanized antibodies were incubated in mouse, human and cynomolgus serum for 21 days. The binding of the Tau01 HMKE, HMKM, HMKN, HMKO, HMKP candidate antibodies which had been incubated in the 3 different serums were compared with an antibody incubated in PBS and a 4° C. positive control sample by binding ELISA to TauC3 (FIG. 37). The Tau01 HMKE, HMKM, HMKN, HMKO, HMKP candidate antibodies retained their binding capability after being incubated in mouse, human and cynomolgus serum.

[11] = target: T1, TauC3 (C-terminally truncated tau …); assay: binding ELISA, TauC3 coated; FIG. 16 ELISA
In short: as §1

[12] = target: T1, TauC3 (C-terminally truncated tau …); assay: binding ELISA on coated TauC3, OD650; remark: listed apart in the source
In short: as §1

[13] = target: T1, TauC3 (C-terminally truncated tau …); assay: binding ELISA, TauC3 coated
In short: as §1

[14] = target: T1, TauC3 (C-terminally truncated tau …); assay: binding ELISA on coated TauC3, OD650; remark: listed apart in the source
In short: as §1

[15] = target: T1, TauC3 (C-terminally truncated tau …); assay: binding ELISA on coated TauC3, OD650; remark: listed apart in the source
In short: as §1

[16] = target: T1, TauC3 (C-terminally truncated tau …); assay: binding ELISA on coated TauC3, OD650; remark: listed apart in the source
In short: as §1

T1 sequence (P10636 other isoform, or with tags, fused parts or gaps): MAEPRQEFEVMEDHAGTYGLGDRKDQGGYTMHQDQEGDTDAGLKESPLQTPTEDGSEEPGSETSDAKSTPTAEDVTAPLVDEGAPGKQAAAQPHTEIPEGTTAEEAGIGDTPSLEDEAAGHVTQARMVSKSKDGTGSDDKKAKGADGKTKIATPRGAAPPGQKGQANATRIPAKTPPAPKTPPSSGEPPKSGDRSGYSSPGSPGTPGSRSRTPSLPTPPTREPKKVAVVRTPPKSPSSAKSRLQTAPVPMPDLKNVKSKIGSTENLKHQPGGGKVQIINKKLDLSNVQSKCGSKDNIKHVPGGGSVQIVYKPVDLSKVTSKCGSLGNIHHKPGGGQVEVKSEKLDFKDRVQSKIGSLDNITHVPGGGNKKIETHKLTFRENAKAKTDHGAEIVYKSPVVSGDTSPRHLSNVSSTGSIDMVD

Row | binding result [4] | Kd [5] | koff [5] | kon [5] | EC50 [6] | Kd [7] | koff [8] | Kslow [9] | EC50 (read off the curve) [10] | koff [7] | Binder | other results
1 |  |  |  |  |  |  |  |  |  |  | Tau01 HBKA (antibody, V domains shown, human IgG4 kappa (HuG4K)) VH: EVQVVESGGGLVQPGGSLKLSCAASGFTFNTYAMNWVRQASGKGLEWVARIRSKSNNYATYYADSVKGRFTISRDDSKSMVYLQMDSLKTEDTAVYYCVGGGDFWGQGTLVTVSS VL: DIQMTQSPSSLSASVGDRVTITCRASQEISVYLGWYQQKPGKAPKRLIYGAFKLQSGVPSRFSGSRSGTEFTLTISSLQPEDFATYYCLQYVRYPWTFGGGTKVEIK | EC50 [1]: 1390 pM; EC50 [2]: 795 pM; EC50 [3]: 920 pM
2 | no binding | 25 pM | 0.0015 s⁻¹ | 6.03e+07 M⁻¹ s⁻¹ | 624 pM | 24.9 pM | 0.000878 s⁻¹ | 0.000823 | ~500 pM |  | Tau01 HMKN HuG4k (antibody, V domains shown, human IgG4 kappa (HuG4K)) VH: LVQLVESGGGLVQPGGSLKLSCAASGFTFNTYAMNWVRQASGKGLEWVARIRSKSNNYATYYAASVKGRFTISRDDSKSMAYLQMDSLKTEDTAVYYCVGGGDFWGQGTLVTVSS VL: DIQMTQSPSSLSASVGDRVTITCRASQEISVYLGWYQQKPGKAPKRLIYGAFTLQSGVPSRFSGSRSGTEYTLTISSLQPEDFATYYCLQYVRYPWTFGGGTKVEIK | 
3 | no binding | 13 pM | 0.00186 s⁻¹ | 1.43e+08 M⁻¹ s⁻¹ | 499 pM |  | 0.000811 s⁻¹ | 0.000777 | ~600 pM | 0.00186 s⁻¹ | Tau01 HMKP HuG4k (antibody, V domains shown, human IgG4 kappa (HuG4K); Lead candidate) VH: LVQLVESGGGLVQPGGSLKLSCAASGFTFNTYAMNWVRQASGKGLEWVARIRSKSNNYATYYAASVKGRFTISRDDSKSMAYLQMDSLKTEDTAVYYCVGGGDFWGQGTLVTVSS VL: DIQMTQSPSSLSASVGDRVTITCRASQEISVYLGWFQQKPGKAPKRLIYGAFKLQSGVPSRFSGSRSGTEYTLTISSLQPEDFATYYCLQYVRYPWTFGGGTKVEIK | kon [7]: 1.43e+08 M⁻¹ s⁻¹
4 | no binding | 20 pM | 0.00283 s⁻¹ | 1.41e+08 M⁻¹ s⁻¹ | 437 pM and 532 pM | 20.1 pM | 0.000953 s⁻¹ | 0.000883 | ~800 pM | 0.00283 s⁻¹ | Tau01 HMKE HuG4k (antibody, V domains shown, human IgG4 kappa (HuG4K); also called KMKE) VH: LVQLVESGGGLVQPGGSLKLSCAASGFTFNTYAMNWVRQASGKGLEWVARIRSKSNNYATYYAASVKGRFTISRDDSKSMAYLQMDSLKTEDTAVYYCVGGGDFWGQGTLVTVSS VL: DIQMTQSPSSLSASVGDRVTITCRASQEISVYLGWFQQKPGKAPKRLIYGAFKLQSGVPSRFSGSRSGTEFTLTISSLQPEDFATYYCLQYVRYPWTFGGGTKVEIK | 
5 | no binding | 59 pM | 0.00352 s⁻¹ | 5.93e+07 M⁻¹ s⁻¹ | 582 pM | 59.4 pM | 0.000473 s⁻¹ | 0.000349 | ~700 pM | 0.00352 s⁻¹ | Tau01 HMKO HuG4k (antibody, V domains shown, human IgG4 kappa (HuG4K)) VH: LVQLVESGGGLVQPGGSLKLSCAASGFTFNTYAMNWVRQASGKGLEWVARIRSKSNNYATYYAASVKGRFTISRDDSKSMAYLQMDSLKTEDTAVYYCVGGGDFWGQGTLVTVSS VL: DIQMTQSPSSLSASVGDRVTITCRASQEISVYLGWYQQKPGKAPKRLIYGAFSLQSGVPSRFSGSRSGTEYTLTISSLQPEDFATYYCLQYVRYPWTFGGGTKVEIK | 
6 |  |  |  |  |  |  |  |  |  |  | Tau01 HBKC (antibody, V domains shown, human IgG4 kappa (HuG4K)) VH: EVQVVESGGGLVQPGGSLKLSCAASGFTFNTYAMNWVRQASGKGLEWVARIRSKSNNYATYYADSVKGRFTISRDDSKSMVYLQMDSLKTEDTAVYYCVGGGDFWGQGTLVTVSS VL: DIQMTQSPSSLSASVGDRVTITCRASQEISVYLSWFQQKPGKAPKRLIYGAFKLQSGVPSRFSGSRSGTEYTLTISSLQPEDFATYYCLQYVRYPWTFGGGTKVEIK | EC50 [11]: 840 pM; EC50 [1]: 990 pM
7 |  |  |  |  |  |  |  |  |  |  | Tau01 HFKB (antibody, V domains shown, human IgG4 kappa (HuG4K)) VH: LVQLVESGGGLVQPGGSLKLSCAASGFTFNTYAMNWVRQASGKGLEWVGRIRSKSNNYATAYAASVKGRFTISRDDSKNTAYLQMDSLKTEDTAVYYCVGGGDFWGQGTLVTVSS VL: DIQMTQSPSSLSASVGDRVTITCRASQEISVYLSWFQQKPGKAIKRLIYGAFTLQSGVPSRFSGSRSGSEYTLTISSLQPEDFATYYCLQYVRYPWTFGGGTKVEIK | EC50 [12]: 2930 pM
8 |  |  |  |  |  |  |  |  |  |  | Tau01 HBKB (antibody, V domains shown, human IgG4 kappa (HuG4K)) VH: EVQVVESGGGLVQPGGSLKLSCAASGFTFNTYAMNWVRQASGKGLEWVARIRSKSNNYATYYADSVKGRFTISRDDSKSMVYLQMDSLKTEDTAVYYCVGGGDFWGQGTLVTVSS VL: DIQMTQSPSSLSASVGDRVTITCRASQEISVYLSWFQQKPGKAIKRLIYGAFTLQSGVPSRFSGSRSGSEYTLTISSLQPEDFATYYCLQYVRYPWTFGGGTKVEIK | EC50 [13]: 780 pM; EC50 [11]: 810 pM; EC50 [2]: 768 pM; EC50 [14]: 402 pM; EC50 [15]: 402 pM; EC50 [16]: 402 pM

Source: patent US20220064272A1 (TAUC3 BIOLOGICS, published 2022)
